Molecular target: the molecule itself
Assay: SEC

B1: full-length MmpL4 (M. tuberculosis) (natural protein)
chain: MSTKFANDSNTNARPEKPFIARMIHAFAVPIILGWLAVCVVVTVFVPSLEAVGQERSVSLSPKDAPSFEAMGRIGMVFKEGDSDSFAMVIIEGNQPLGDAAHKYYDGLVAQLRADKKHVQSVQDLWGDPLTAAGVQSNDGKAAYVQLSLAGNQGTPLANESVEAVRSIVESTPAPPGIKAYVTGPSALAADMHHSGDRSMARITMVTVAVIFIMLLLVYRSIITVVLLLITVGVELTAARGVVAVLGHSGAIGLTTFAVSLLTSLAIAAGTDYGIFIIGRYQEARQAGEDKEAAYYTMYRGTAHVILGSGLTIAGATFCLSFARMPYFQTLGIPCAVGMLVAVAVALTLGPAVLHVGSRFGLFDPKRLLKVRGWRRVGTVVVRWPLPVLVATCAIALVGLLALPGYKTSYNDRDYLPDFIPANQGYAAADRHFSQARMKPEILMIESDHDMRNPADFLVLDKLAKGIFRVPGISRVQAITRPEGTTMDHTSIPFQISMQNAGQLQTIKYQRDRANDMLKQADEMATTIAVLTRMHSLMAEMASTTHRMVGDTEEMKEITEELRDHVADFDDFWRPIRSYFYWEKHCYGIPICWSFRSIFDALDGIDKLSEQIGVLLGDLREMDRLMPQMVAQIPPQIEAMENMRTMILTMHSTMTGIFDQMLEMSDNATAMGKAFDAAKNDDSFYLPPEVFKNKDFQRAMKSFLSSDGHAARFIILHRGDPQSPEGIKSIDAIRTAAEESLKGTPLEDAKIYLAGTAAVFHDISEGAQWDLLIAAISSLCLIFIIMLIITRAFIAAAVIVGTVALSLGASFGLSVLLWQHILAIHLHWLVLAMSVIVLLAVGSDYNLLLVSRFKQEIGAGLKTGIIRSMGGTGKVVTNAGLVFAVTMASMAVSDLRVIGQVGTTIGLGLLFDTLIVRSFMTPSIAALLGRWFWWPLRVRSRPARTPTVPSETQPAGRPLAMSSDRLG
Question: Does B1 bind?
Answer: Result: binds
